How the values were obtained:
human C-peptide (human) [1] = assay: sandwich immunoassay, one-step; CPT-3F-11 on particles, labeled antibody 9101
human C-peptide (human) [2] = assay: ELISA on immobilized C-peptide; labeled antibody 0.1 ug/ml, free C-peptide 0.1 ug/ml
human C-peptide (human) [3] = assay: ELISA on immobilized C-peptide; labeled antibody 0.1 ug/ml, free C-peptide 1.0 ug/ml
human C-peptide (human) [4] = assay: ELISA on immobilized C-peptide; labeled antibody 1.0 ug/ml, free C-peptide 0.1 ug/ml
human C-peptide (human) [5] = assay: ELISA on immobilized C-peptide; labeled antibody 0.1 ug/ml, free C-peptide 0 ug/ml (reference)
human proinsulin (human) [6] = target: human proinsulin (human) (UniProt P01308); assay: sandwich immunoassay, two-step; proinsulin 50 ng/ml; CPT-3F-11 on particles, labeled antibody 9101
human proinsulin (human) [7] = target: human proinsulin (human) (UniProt P01308); assay: sandwich immunoassay, one-step; proinsulin 200 ng/ml; CPT-3F-11 on particles, labeled antibody 9101
human proinsulin (human) [8] = target: human proinsulin (human) (UniProt P01308); assay: sandwich immunoassay, one-step; proinsulin 400 ng/ml; CPT-3F-11 on particles, labeled antibody 9101
human proinsulin (human) [9] = target: human proinsulin (human) (UniProt P01308); assay: sandwich immunoassay, two-step; proinsulin 400 ng/ml; CPT-3F-11 on particles, labeled antibody 9101
human proinsulin (human) [10] = target: human proinsulin (human) (UniProt P01308); assay: sandwich immunoassay, one-step, against C-peptide calibration; proinsulin 50 ng/ml; CPT-3-F11 on particles, labeled antibody 9101
human proinsulin (human) [11] = target: human proinsulin (human) (UniProt P01308); assay: sandwich immunoassay, two-step, against C-peptide calibration; proinsulin 200 ng/ml; CPT-3-F11 on particles, labeled antibody PEP-001
[12] = target: modified C-peptide (human C-peptide having Arg-Arg bound to its N-terminal and Lys-Arg bound to its C-terminal) (human); assay: sandwich immunoassay, two-step, against C-peptide calibration; modified C-peptide 5 ng/ml; CPT-3F-11 on particles, labeled antibody PEP-001
Sequence of modified C-peptide (human C-peptide having Arg-Arg bound to its N-terminal and Lys-Arg bound to its C-terminal) (human) (peptide, as listed by the source): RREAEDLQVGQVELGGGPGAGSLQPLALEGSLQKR

Sequence of UniProt P01308 (P01308 25-110): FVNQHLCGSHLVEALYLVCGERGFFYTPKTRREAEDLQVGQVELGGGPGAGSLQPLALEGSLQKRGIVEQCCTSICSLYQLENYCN
Sequence of human C-peptide (human) (peptide, as listed by the source): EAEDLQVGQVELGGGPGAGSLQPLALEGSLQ

2S/N value (human C-peptide (human) [1]): 0.008 ng/mL
Absorbance (absorbance at 405 nm) (human C-peptide (human) [2]): 0.179
Binding Ratio (human C-peptide (human) [2]): 11.8%
Absorbance (absorbance at 405 nm) (human C-peptide (human) [3]): 0.026
Binding Ratio (human C-peptide (human) [3]): 1.7%
Absorbance (absorbance at 405 nm) (human C-peptide (human) [4]): 0.311
Binding Ratio (human C-peptide (human) [4]): 16%
Binding Ratio (human C-peptide (human) [5]): 100%
counts of chemiluminescence (human proinsulin (human) [6]): 4400 counts
counts of chemiluminescence (human proinsulin (human) [7]): 51300 counts
counts of chemiluminescence (human proinsulin (human) [8]): 118000 counts
counts of chemiluminescence (human proinsulin (human) [9]): 99400 counts
Cross-reactivity (%) to Human Proinsulin (human proinsulin (human) [10]): 0.9%
Cross-reactivity (%) to Human Proinsulin (human proinsulin (human) [11]): > 30%
Cross-reactivity (%) to Modified C-peptide [12]: 53.2%
Substance: anti-human C-peptide monoclonal antibody CPT-3-F11 (Dako)
